Data: the supplement of paper PMC12764529
± gives the half width of the 95% confidence interval.

Legend:
[1] = folding stability dG unfold (combined trypsin and chymotrypsin); higher = more stable
How it was run: (§1)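 Designed mini-proteins (under 80 residues, no cysteine) in a PA-tagged cDNA display construct were digested with trypsin and chymotrypsin. Each protease was used at 11 concentrations (threefold dilutions) plus a no-protease condition, followed by sequencing. K50 was inferred by Bayesian fitting of sequencing counts, and unfolding free energy was derived against a sequence-predicted unfolded-state K50 and a shared folded-state K50, per protease or combined. Only designs with AlphaFold2 dimer inter-PAE above 15 were kept.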

[2] = folding stability dG unfold from chymotrypsin proteolysis; higher = more stable
How it was run: as §1

[3] = folding stability dG unfold from trypsin proteolysis; higher = more stable
How it was run: as §1

Sequence	folding stability dG unfold [1]	folding stability dG unfold [2]	folding stability dG unfold [3]
SAGGSAGGSAGGKTYTLTFKAKIEVSEDDVVVITPPNGKKLVVPKENVKVHPDGTVTVTGSAGGSAGGSAGG [r7_684_TrMRF]	1.19 ± 0.2 kcal/mol	1.27 ± 0.2 kcal/mol	1.28 ± 0.097 kcal/mol
SAGGSAGGSAGGKVEEVEKLAEELEKELGVDIGEVEVLDHPDKFRYRIRIPDLDLDLEFSAGGSAGGSAGGS [r10_161_TrMRF]	-0.103 ± 0.11 kcal/mol	-0.0226 ± 0.17 kcal/mol	-0.529 ± 0.18 kcal/mol
SAGGSAGGSAGGKVKVLSVFELPNNKRLVLIETPSGKKILIVTDSSDPDKVKEKAKEIASAGGSAGGSAGGS [r10_472_TrMRF]	1.73 ± 0.037 kcal/mol	1.822 ± 0.017 kcal/mol	1.54 ± 0.02 kcal/mol
SAGGSAGGSAGGKVLHVPYENIEEKIKEAEEKYPNKEILIHAYLPNGKLLKTIKIKVKKSAGGSAGGSAGGS [r10_741_TrMRF]	1.23 ± 0.053 kcal/mol	1.18 ± 0.03 kcal/mol	1.29 ± 0.026 kcal/mol
SAGGSAGGSAGGKVSEIDLSGDKVVVTVKGPGGSVVREVHPDKTLEQVLDELLENPELVDSAGGSAGGSAGG [r7_373_TrMRF]	1.13 ± 0.057 kcal/mol	1.55 ± 0.05 kcal/mol	-0.176 ± 0.1 kcal/mol
SAGGSAGGSAGGKWHLITFTITMEMYVMKFDPENGKWKPVDPIPMEIQITFLIPPGDPISAGGSAGGSAGGS [r10_610_TrROS]	4.65 ± 0.47 kcal/mol	5.08 ± 0.2 kcal/mol	3.77 ± 0.25 kcal/mol
SAGGSAGGSAGGKWIMVDSPEDIKEFAEDQGYKIKVDNVHPFPGDKNHYMVWIEIEPPGSAGGSAGGSAGGS [r10_126_TrROS]	1.18 ± 0.14 kcal/mol	1.13 ± 0.18 kcal/mol	1.19 ± 0.12 kcal/mol
SAGGSAGGSAGGKYKILKIEKYKLPNGGYYYKALVYEEENGEWKEIYAKANSAKNFKFESAGGSAGGSAGGS [r10_326_TrMRF]	1.08 ± 0.1 kcal/mol	1.16 ± 0.11 kcal/mol	0.828 ± 0.049 kcal/mol
SAGGSAGGSAGGLEIELPNARIRIEELEGEPRRIRVRVEFFPPDGGRLSAEAEFDILPDLSAGGSAGGSAGG [r17_184_TrMRF]	2.57 ± 0.092 kcal/mol	2.5 ± 0.08 kcal/mol	2.66 ± 0.056 kcal/mol
SAGGSAGGSAGGLEKLVELLAPGKPLEVLRIDPTPTYVRIVVRHPDYPVDTVILADPDVISAGGSAGGSAGG [r7_303_TrMRF]	-0.0768 ± 0.051 kcal/mol	-0.617 ± 0.11 kcal/mol	0.237 ± 0.046 kcal/mol
SAGGSAGGSAGGLLEELKAKGYTVLSTPVPSPPDGVPTRTVLAKKGEGTVTFVVPAALLSAGGSAGGSAGGS [r10_35_JUSTAS]	0.287 ± 0.23 kcal/mol	0.525 ± 0.17 kcal/mol	-0.172 ± 0.18 kcal/mol
SAGGSAGGSAGGLPEGWVLKTETKTVKLKVKVKVDGKEYEFEVEVKVTRIELVPKEELESAGGSAGGSAGGS [r10_300_TrROS_Hall]	3.76 ± 0.11 kcal/mol	4.08 ± 0.2 kcal/mol	3.04 ± 0.23 kcal/mol
SAGGSAGGSAGGLPKPVTVTLSRPEGGETLTLTFPSGTTPEEVRAAVEAEPDLSILSISSSAGGSAGGSAGG [r7_624_JUSTAS]	1.1 ± 0.059 kcal/mol	0.892 ± 0.063 kcal/mol	1.2 ± 0.074 kcal/mol
SAGGSAGGSAGGLPPFDLGFESVEVEEVFPDGPVVVTVRLPDRTVRLVVVGGRIVRVEPSSAGGSAGGSAGG [r17_396_TrMRF]	1.75 ± 0.085 kcal/mol	1.97 ± 0.048 kcal/mol	1.68 ± 0.036 kcal/mol
SAGGSAGGSAGGLRAKIVEIKEVKVKKLYKDPETNEWYEEEKTVKVIKIKIEPAKPGEKISAGGSAGGSAGG [r17_530_TrROS_Hall]	0.947 ± 0.13 kcal/mol	1.14 ± 0.044 kcal/mol	0.537 ± 0.08 kcal/mol
SAGGSAGGSAGGLSPGDEIKIRIMIFYRDPGSGNMRPIQPFPITIKIEPPPPKPKDPNNNSAGGSAGGSAGG [r7_522_TrROS]	3.08 ± 0.12 kcal/mol	3.82 ± 0.085 kcal/mol	2.27 ± 0.1 kcal/mol
SAGGSAGGSAGGLTFRLPDGTRVRVRVELNEDGELRITVEVEPLPPPPPKVEFYSEEELKSAGGSAGGSAGG [r7_660_TrROS_Hall]	2.92 ± 0.12 kcal/mol	3.06 ± 0.08 kcal/mol	2.72 ± 0.076 kcal/mol
SAGGSAGGSAGGLWLTFNFRLTFFNPDGQAMEIEIPIEIRIPPPPVTVPDPDGEEYKYDSAGGSAGGSAGGS [r10_330_TrROS]	2.87 ± 0.18 kcal/mol	3 ± 0.069 kcal/mol	2.39 ± 0.07 kcal/mol
SAGGSAGGSAGGMAENLSPEQLRELAKELGLSEEDLEPGQVVRFRLPNGEVIEVRVEDESAGGSAGGSAGGS [r10_623_TrROS_Hall]	0.913 ± 0.067 kcal/mol	0.372 ± 0.13 kcal/mol	1.29 ± 0.033 kcal/mol
SAGGSAGGSAGGMEKLSETVTETVEVTLTSGDKTYTFTVTTTTVVLPDGTVETLEVTLQPSAGGSAGGSAGG [r11_95_JUSTAS]	2.81 ± 0.14 kcal/mol	3.42 ± 0.12 kcal/mol	2.05 ± 0.1 kcal/mol
SAGGSAGGSAGGMEVYRNPETGTLVFLFELEDGSYVAVTINPDGSVEVRVFDKDGRWVPSAGGSAGGSAGGS [r10_299_TrROS_Hall]	3.03 ± 0.081 kcal/mol	3.507 ± 0.027 kcal/mol	2.61 ± 0.064 kcal/mol
